Assay [1] concerns the target T1, IGF2 (human, UniProt P01344 25-91).
T1 construct: whole, on cells; Secreted targets were tethered to the plasma membrane
In words: cell microarray on HEK293 cells. On the procedure: (§1) Initially, two pools of compounds were tested. […] To perform this assay, HEK293 cells were plated on a dish and localized spots of cells were transiently over-expressed with a single cDNA encoding for GFP and one of the 6,416 targets. Included in this library were multiple clones for the Nectin family members, including plasma membrane, non-tethered secreted, and tethered secreted forms of Nectin-1, 2, 3, and 4. Secreted protein targets were tethered to the plasma membrane to aid in detection. The molecule pools were incubated on the fixed, over-expressing cell microarrays (n=2 per protein), and binding was visualized using Alexa Fluor 647 streptavidin fluorescence.

For assay [2], the target named is T2, IGFBP5 (human, UniProt P24593 21-272).
T2 construct: whole, on cells; Secreted targets were tethered to the plasma membrane
T2 sequence (P24593 21-272): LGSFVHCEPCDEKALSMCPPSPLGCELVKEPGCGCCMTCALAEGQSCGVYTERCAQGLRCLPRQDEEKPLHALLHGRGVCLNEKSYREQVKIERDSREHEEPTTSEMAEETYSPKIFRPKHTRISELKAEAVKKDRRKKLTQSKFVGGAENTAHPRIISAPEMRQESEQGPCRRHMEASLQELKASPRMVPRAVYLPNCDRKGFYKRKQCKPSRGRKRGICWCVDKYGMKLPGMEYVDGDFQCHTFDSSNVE
Description: cell microarray on HEK293 cells. On the procedure:
as §1

The target of assay [3] is T3, PLPP3 (human, UniProt O14495 1-311).
T3 construct: whole, on cells
T3 sequence (looked up): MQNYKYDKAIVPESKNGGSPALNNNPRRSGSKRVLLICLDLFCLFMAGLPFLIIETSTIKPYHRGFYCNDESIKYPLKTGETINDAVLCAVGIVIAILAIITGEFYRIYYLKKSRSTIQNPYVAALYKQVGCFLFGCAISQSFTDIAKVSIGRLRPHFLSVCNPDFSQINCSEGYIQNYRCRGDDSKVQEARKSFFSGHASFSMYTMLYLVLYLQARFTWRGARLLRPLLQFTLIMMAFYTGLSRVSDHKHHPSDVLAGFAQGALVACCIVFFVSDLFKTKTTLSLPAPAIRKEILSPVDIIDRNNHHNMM
Description: cell microarray on HEK293 cells. On the procedure: as §1

Assay [4] deals with T4, EGF (human, UniProt P01133 23-1207).
T4 construct: whole, on cells
T4 sequence (P01133 23-1207): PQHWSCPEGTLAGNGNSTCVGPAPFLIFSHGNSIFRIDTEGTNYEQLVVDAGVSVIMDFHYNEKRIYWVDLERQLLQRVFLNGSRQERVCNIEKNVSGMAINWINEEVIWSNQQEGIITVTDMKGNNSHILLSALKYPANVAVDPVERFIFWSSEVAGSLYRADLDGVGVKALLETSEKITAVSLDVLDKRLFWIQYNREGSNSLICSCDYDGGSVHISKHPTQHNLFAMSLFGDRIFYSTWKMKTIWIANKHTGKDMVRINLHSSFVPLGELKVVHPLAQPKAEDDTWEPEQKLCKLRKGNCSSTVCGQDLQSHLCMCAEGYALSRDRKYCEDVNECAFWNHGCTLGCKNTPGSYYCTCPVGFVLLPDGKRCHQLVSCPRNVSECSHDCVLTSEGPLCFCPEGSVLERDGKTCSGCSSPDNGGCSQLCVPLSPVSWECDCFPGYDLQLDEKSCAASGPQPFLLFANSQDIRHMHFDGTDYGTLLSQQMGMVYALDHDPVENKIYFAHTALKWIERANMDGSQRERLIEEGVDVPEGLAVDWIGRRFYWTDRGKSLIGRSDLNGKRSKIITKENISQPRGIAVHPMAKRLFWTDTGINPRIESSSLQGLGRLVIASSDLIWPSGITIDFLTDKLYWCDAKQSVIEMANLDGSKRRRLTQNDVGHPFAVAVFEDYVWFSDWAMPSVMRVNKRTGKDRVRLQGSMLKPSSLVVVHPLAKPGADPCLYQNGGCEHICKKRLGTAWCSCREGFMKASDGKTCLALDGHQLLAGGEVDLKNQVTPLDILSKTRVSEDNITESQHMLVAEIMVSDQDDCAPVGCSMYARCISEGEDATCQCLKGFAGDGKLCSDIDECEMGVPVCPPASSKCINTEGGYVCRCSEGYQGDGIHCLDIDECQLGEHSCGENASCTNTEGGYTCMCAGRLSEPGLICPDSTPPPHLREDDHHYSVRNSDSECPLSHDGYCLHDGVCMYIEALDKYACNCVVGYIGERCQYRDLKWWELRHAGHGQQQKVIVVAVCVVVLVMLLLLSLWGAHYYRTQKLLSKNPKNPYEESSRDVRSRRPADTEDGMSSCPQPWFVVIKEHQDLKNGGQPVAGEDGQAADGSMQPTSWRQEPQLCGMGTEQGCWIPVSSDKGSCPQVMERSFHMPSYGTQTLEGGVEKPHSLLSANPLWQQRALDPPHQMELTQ
In words: cell microarray on HEK293 cells. Here is the method: as §1

Assay [5] addresses T5, TRPV5 (human, UniProt Q9NQA5 1-729).
T5 construct: whole, on cells
Description: cell microarray on HEK293 cells. Here is the method: as §1

The target of assay [6] is T6, IGF1 (human, UniProt P05019 49-118).
T6 construct: whole, on cells; Secreted targets were tethered to the plasma membrane
T6 sequence (P05019 49-118): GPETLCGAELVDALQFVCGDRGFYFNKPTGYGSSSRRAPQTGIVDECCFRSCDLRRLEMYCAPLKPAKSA
Description: cell microarray on HEK293 cells. On the procedure:
as §1

Assay [7] has as its target T7, Human Nectin-4 (human, UniProt Q96NY8 32-349, limits assumed).
T7 construct: Protein immobilised on the SPR chip; also called target protein
T7 sequence: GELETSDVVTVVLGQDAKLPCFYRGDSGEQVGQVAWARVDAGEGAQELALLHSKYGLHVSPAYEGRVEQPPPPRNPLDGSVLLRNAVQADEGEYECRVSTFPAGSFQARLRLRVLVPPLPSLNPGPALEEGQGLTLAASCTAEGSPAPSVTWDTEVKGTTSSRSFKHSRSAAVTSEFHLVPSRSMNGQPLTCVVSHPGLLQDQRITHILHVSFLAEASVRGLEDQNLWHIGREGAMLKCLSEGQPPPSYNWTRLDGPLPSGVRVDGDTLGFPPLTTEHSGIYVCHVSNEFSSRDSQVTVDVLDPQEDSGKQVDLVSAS
In words: SPR, Biacore T200, target immobilised, 1:1 model. Here is the method:
Surface plasmon resonance (SPR) analyses were performed using Biacore T200 (GE Healthcare). Target protein (“ligand”) was immobilized to a CM5 Series S sensor chip (Cytiva) using amine-coupling chemistry. Running buffer was 0.05% surfactant P20 in HEPES buffered saline (HBS-P), pH 7.4 (Cytiva). Immobilization was performed at 25° C. Carboxyl groups in each flow cell were activated using a 1:1 mixture of 0.4 M 1-ethyl-3-(3-dimethylaminopropyl)-carbodiimide in water (EDC) and 0.1 M N-hydroxysuccinimide in water (NHS) for 7 minutes. The ligand was prepared in 10 mM sodium acetate pH 5 (Cytiva). Pulsatile injections were made to target a specific immobilization level. Any remaining amine-reactive esters on the chip surface were blocked with a 7-minute injection of 1 M ethanolamine, pH 8.5. Three 10-second pulses of 50 mM sodium hydroxide were then made to remove any unbound ligand. Reference cells were modified using amine coupling chemistry, omitting ligand injection.
Increase in signal (RU) is proportional to an increase in binding events between the analyte and ligand surface. The injection was then stopped, and dissociation was measured. […] Measured association (kₐ, 1/Ms⁻¹) and dissociation (kd, s⁻¹) were fit to a 1:1 binding model to calculate a dissociation equilibrium constant, KD(M) for each analyte.
On the technique in general: SPR reads the build-up and loss of mass on a sensor chip optically.

The target in assay [8] is T8, Nectin-2 (human, UniProt Q92692 32-538).
T8 construct: whole, on cells; Plasma membrane, non-tethered secreted and tethered secreted forms in the library
T8 sequence (looked up): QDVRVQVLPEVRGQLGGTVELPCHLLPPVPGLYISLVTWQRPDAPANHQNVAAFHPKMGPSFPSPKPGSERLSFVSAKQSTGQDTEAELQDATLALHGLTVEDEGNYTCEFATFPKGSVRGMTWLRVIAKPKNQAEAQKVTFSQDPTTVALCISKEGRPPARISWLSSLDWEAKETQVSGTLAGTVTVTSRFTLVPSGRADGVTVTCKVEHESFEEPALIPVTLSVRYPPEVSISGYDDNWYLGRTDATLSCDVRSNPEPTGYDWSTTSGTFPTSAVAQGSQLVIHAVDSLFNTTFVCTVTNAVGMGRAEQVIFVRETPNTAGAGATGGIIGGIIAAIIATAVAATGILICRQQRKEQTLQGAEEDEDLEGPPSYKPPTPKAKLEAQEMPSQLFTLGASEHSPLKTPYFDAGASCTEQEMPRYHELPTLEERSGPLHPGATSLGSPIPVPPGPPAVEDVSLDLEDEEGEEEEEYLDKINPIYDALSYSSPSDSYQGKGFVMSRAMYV
In words: cell microarray on HEK293 cells, pooled compounds. Here is the method:
as §1

Assay [9] addresses T9, Nectin-1 (human, UniProt Q15223 31-517).
T9 construct: whole, on cells; Plasma membrane, non-tethered secreted and tethered secreted forms in the library
T9 sequence (looked up): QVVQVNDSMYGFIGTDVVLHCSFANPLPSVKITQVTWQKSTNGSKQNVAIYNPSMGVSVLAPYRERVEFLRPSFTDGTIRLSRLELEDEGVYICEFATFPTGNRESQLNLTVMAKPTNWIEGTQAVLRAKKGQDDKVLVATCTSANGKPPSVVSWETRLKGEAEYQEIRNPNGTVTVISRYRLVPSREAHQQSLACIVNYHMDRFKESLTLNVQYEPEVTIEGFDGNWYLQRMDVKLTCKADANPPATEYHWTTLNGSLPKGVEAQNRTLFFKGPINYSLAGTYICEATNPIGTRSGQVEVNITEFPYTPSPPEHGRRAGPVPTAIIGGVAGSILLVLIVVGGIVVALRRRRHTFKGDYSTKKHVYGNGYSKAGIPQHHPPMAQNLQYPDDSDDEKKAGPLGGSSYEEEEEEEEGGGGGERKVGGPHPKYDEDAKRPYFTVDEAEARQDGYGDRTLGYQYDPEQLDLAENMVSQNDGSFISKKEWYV
Description: cell microarray on HEK293 cells, pooled compounds. On the procedure: as §1

Assay [10] addresses T7, Human Nectin-4. Description: Table 2B (DELFIA or SPR).

Primed or numbered codes have the meaning given here. Where no end group is shown, it is not given here. [ ]: non-standard residue; d: D form. The star is where a group is joined. Biotin = O=C1N[C@H]2[C@H](CS[C@H]2CCCCC(=O)*)N1; Lys(Me3) = C[N+](C)(C)CCCC[C@H](N)C(=O)O; PEG4′ = not defined here

T5 sequence (Q9NQA5 whole entry): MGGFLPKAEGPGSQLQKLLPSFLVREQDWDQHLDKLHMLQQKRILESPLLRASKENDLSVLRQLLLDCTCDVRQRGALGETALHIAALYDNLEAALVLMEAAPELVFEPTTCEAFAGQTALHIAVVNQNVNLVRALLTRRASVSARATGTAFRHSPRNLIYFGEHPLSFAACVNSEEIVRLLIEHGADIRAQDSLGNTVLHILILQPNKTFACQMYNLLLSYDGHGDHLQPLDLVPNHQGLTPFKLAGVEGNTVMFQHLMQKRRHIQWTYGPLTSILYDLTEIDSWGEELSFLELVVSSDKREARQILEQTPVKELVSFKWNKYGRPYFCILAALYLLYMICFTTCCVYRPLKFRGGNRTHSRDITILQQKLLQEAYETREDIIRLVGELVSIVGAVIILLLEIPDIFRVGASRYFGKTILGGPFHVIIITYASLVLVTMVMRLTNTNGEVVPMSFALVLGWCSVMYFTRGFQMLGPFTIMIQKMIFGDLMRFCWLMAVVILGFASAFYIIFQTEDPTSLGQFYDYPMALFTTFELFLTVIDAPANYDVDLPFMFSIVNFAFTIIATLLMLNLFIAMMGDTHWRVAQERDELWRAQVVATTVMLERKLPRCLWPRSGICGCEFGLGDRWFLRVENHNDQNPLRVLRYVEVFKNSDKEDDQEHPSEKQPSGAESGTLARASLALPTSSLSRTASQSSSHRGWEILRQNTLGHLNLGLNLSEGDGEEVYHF
T1 sequence (P01344 25-91): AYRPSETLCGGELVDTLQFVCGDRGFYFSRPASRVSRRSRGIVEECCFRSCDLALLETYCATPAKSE

The term Kd denotes the free concentration of one partner at which half of the binding sites on the other are occupied at equilibrium, for simple one-to-one binding. Read a low Kd as tighter binding. With {Biotin-PEG4′}-CEYDEEFFTALARLRGGDICQYIQA[Lys(Me3)]FQYLPALCIEEILDNLGCS (designed binder, cysteine pairing not given here) [C253], the binding result in assay [1], in assay [2], in assay [3], in assay [4], in [5] and in assay [6] was “no binding (tested: 2 µg/mL)” in each case. The binding result in assay [8] and in assay [9] was “no binding (tested: 2 µg/mL)” throughout. The affinity in [7], expressed as Kd, was 0.255 nM.
For the molecule {Biotin-PEG4′}-CDYDEQFFTALKRLRGADICEYIQASFQYLPGECIEEILDNLGCS (designed binder, cysteine pairing not given here) [C208], the Kd in [10] was found to be 1.02 nM; in [7], 0.302 nM. In addition, the binding result in [1], in [2], in assay [3], in [4], in assay [5] and in assay [6] was “no binding (tested: 2 µg/mL)” in each case. The binding result in [8] and in assay [9] was “no binding (tested: 2 µg/mL)” throughout.
Turning to {Biotin-PEG4′}-CEYDEQFFTALKRLRGDDICDYIQASFQYLPGLCIEEILDNLGCS (designed binder, cysteine pairing not given here) [C197], the Kd in assay [10] was determined as 0.97 nM; in assay [7] it was 0.212 nM. In addition, the binding result in [1], in [2], in [3], in assay [4], in [5] and in assay [6] was “no binding (tested: 2 µg/mL)” each time. Besides, the binding result in [8] and in [9] was “no binding (tested: 2 µg/mL)” in each case.
With {Biotin-PEG4′}-CDYDEQFFTALKRLRGGDICEYIQASFQYLPGLCIEEILDNLGCS (designed binder, cysteine pairing not given here) [C190], the Kd in [10] was determined as 0.71 nM; in assay [7] it was 0.318 nM. For the same molecule, the binding result in assay [1], in assay [2], in [3], in assay [4], in [5] and in assay [6] was “no binding (tested: 2 µg/mL)” throughout. Besides, the binding result in assay [8] and in [9] was “no binding (tested: 2 µg/mL)” each time.
As for {Biotin-PEG4′}-CDYDEQFFTALARLRGADICEYIQASFQYLPGECIEEILDNLGCS (designed binder, cysteine pairing not given here) [C247], the binding result in [1], in assay [2], in assay [3], in assay [4], in assay [5] and in [6] was “no binding (tested: 2 µg/mL)” each time. The binding result in assay [8] and in assay [9] was “no binding (tested: 2 µg/mL)” throughout. The affinity in [7], expressed as Kd, was 0.283 nM.
